These results are taken from patent US20250277032A1 (BIOND BIOLOGICS, published 2025).

The target in this test is T1, human ILT3 on the cell surface (recombinant human ILT3 exogenously overexpressed on HEK cells); ILT3 on THP-1 … (human, UniProt Q8NHJ6 22-448).
T1 construct: whole, on cells; also called membranal ILT3; hILT3
The experiment in a line: flow cytometry on HEK cells overexpressing recombinant human ILT3. (In flow cytometry, cells or beads pass a laser one at a time.)

B1: 3F6 (antibody, V domains shown)
VH: EVKLVESGGGLVKPGGSLKLSCAASGFTFSSYAMSWVRQTPAKRLEWVAAITFGGGNTYYPDSVKGRFTISRDNARNTLYLQMSSLRSEDTAMYYCARHGDGNYDFYAMDYWGQGTSVTVSS
VL: DIVMTQSPSSLTVTAGEKVTMSCKSSQSLLNSGNQKNYLTWYQQKPGQPPKLLIYWASTRESGVPDRFTGSGSRTDFTLTISRVQAEDLAVYYCQNDYSYPLTFGAGTKLELK
notes: Hybridoma (mouse) antibody
B1: the binding result was “binds”.

B2: 7A5 (antibody, V domains shown)
VH: EVKLVESGGGLVKPGGSLKLSCAASGFTFSSYAMSWVRQTPAKRLEWVATISSDGGNTYYTDSVKGRFTISRDNARNTLDLQMSSLRSEDTAMYYCARHDGRGALDYWGQGTSVTVSS
VL: DIQMTQTTSSLSASLGDRVTISCRASQDISNYLNWYQQKPDGTVKLLIYYTSRLHSGVPSRFSGSGSGTDYSLTISNLEQEDIATYFCQQGNTLPWTFGGGTKLEIK
notes: Hybridoma (mouse) antibody
Turning to B2, the binding result is “binds”.
